Literature values in article PMC4456024.

Biological target: cTnI147-163 (Homo sapiens)
Assay: NMR titration

cTnC (cNTnC) 1-89 (from UniProt P63316)
Kd: 150 µM
